The record followed here is patent publication US6887705B1, “Tyrosine phosphorylated cleavage furrow-associated proteins (PSTPIPs)” (Genentech, Inc., priority 1997, dated 2005).

Sequences and labels used below:
T1: PTP HSCF (Mus musculus, UniProt Q61152)
T1 construct: the PST (and C-terminal homolog) of PTP HSCF (amino acids 304-453); made in house; host or cells: E. coli DH5-alpha
T1 sequence (Q61152 304-453): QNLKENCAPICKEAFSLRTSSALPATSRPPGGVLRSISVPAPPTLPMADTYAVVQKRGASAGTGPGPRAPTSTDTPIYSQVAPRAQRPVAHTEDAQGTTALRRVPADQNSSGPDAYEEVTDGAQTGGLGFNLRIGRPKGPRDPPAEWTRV

B1: L224: PST PIP with leucine 224 mutated to alanine (protein)
chain: MMAQLQFRDAFWCRDFTAHTGYEVLLQRLLDGRKMCKDVEELLRQRAQAEERYGKELVQIARKAGGQTEMNSLRTSFDSLKQQTENVGSAHIQLALALREELRSLEEFRERQKEQRKKYEAIMDRVQKSKLSLYKKTMESKKAYDQKCRDADDAEQAFERVSANGHQKQVEKSQNKAKQCKESATEAERVYRQNIEQLERARTEWEQEHRTTCEAFQLQEFDRATILRNALWVHCNQLSMQCVKDDELYEEVRLTLEGCDVEGDINGFIQSKSTGREPPAPVPYQNYYDREVTPLIGSPSIQPSCGVIKRFSGLLHGSPKTTPSAPAASTETLTPTPERNELVYASIEVQATQGNLNSSAQDYRALYDYTAQNSDELDISAGDILAVILEGEDGWWTVERNGQRGFVPGSYLEKLDYKDDDDK
B2: E110RQ: PST PIP clustered alanine substitution starting at E110 (protein)
chain: MMAQLQFRDAFWCRDFTAHTGYEVLLQRLLDGRKMCKDVEELLRQRAQAEERYGKELVQIARKAGGQTEMNSLRTSFDSLKQQTENVGSAHIQLALALREELRSLEEFRAAAKEQRKKYEAIMDRVQKSKLSLYKKTMESKKAYDQKCRDADDAEQAFERVSANGHQKQVEKSQNKAKQCKESATEAERVYRQNIEQLERARTEWEQEHRTTCEAFQLQEFDRLTILRNALWVHCNQLSMQCVKDDELYEEVRLTLEGCDVEGDINGFIQSKSTGREPPAPVPYQNYYDREVTPLIGSPSIQPSCGVIKRFSGLLHGSPKTTPSAPAASTETLTPTPERNELVYASIEVQATQGNLNSSAQDYRALYDYTAQNSDELDISAGDILAVILEGEDGWWTVERNGQRGFVPGSYLEKLDYKDDDDK
B3: N86VG: PST PIP clustered alanine substitution starting at N86 (protein)
chain: MMAQLQFRDAFWCRDFTAHTGYEVLLQRLLDGRKMCKDVEELLRQRAQAEERYGKELVQIARKAGGQTEMNSLRTSFDSLKQQTEAAASAHIQLALALREELRSLEEFRERQKEQRKKYEAIMDRVQKSKLSLYKKTMESKKAYDQKCRDADDAEQAFERVSANGHQKQVEKSQNKAKQCKESATEAERVYRQNIEQLERARTEWEQEHRTTCEAFQLQEFDRLTILRNALWVHCNQLSMQCVKDDELYEEVRLTLEGCDVEGDINGFIQSKSTGREPPAPVPYQNYYDREVTPLIGSPSIQPSCGVIKRFSGLLHGSPKTTPSAPAASTETLTPTPERNELVYASIEVQATQGNLNSSAQDYRALYDYTAQNSDELDISAGDILAVILEGEDGWWTVERNGQRGFVPGSYLEKLDYKDDDDK
B4: D38VE: PST PIP clustered alanine substitution starting at D38 (protein)
chain: MMAQLQFRDAFWCRDFTAHTGYEVLLQRLLDGRKMCKAAAELLRQRAQAEERYGKELVQIARKAGGQTEMNSLRTSFDSLKQQTENVGSAHIQLALALREELRSLEEFRERQKEQRKKYEAIMDRVQKSKLSLYKKTMESKKAYDQKCRDADDAEQAFERVSANGHQKQVEKSQNKAKQCKESATEAERVYRQNIEQLERARTEWEQEHRTTCEAFQLQEFDRLTILRNALWVHCNQLSMQCVKDDELYEEVRLTLEGCDVEGDINGFIQSKSTGREPPAPVPYQNYYDREVTPLIGSPSIQPSCGVIKRFSGLLHGSPKTTPSAPAASTETLTPTPERNELVYASIEVQATQGNLNSSAQDYRALYDYTAQNSDELDISAGDILAVILEGEDGWWTVERNGQRGFVPGSYLEKLDYKDDDDK
B5: R62K: PST PIP clustered alanine substitution starting at R62 (protein)
chain: MMAQLQFRDAFWCRDFTAHTGYEVLLQRLLDGRKMCKDVEELLRQRAQAEERYGKELVQIAAAAGGQTEMNSLRTSFDSLKQQTENVGSAHIQLALALREELRSLEEFRERQKEQRKKYEAIMDRVQKSKLSLYKKTMESKKAYDQKCRDADDAEQAFERVSANGHQKQVEKSQNKAKQCKESATEAERVYRQNIEQLERARTEWEQEHRTTCEAFQLQEFDRLTILRNALWVHCNQLSMQCVKDDELYEEVRLTLEGCDVEGDINGFIQSKSTGREPPAPVPYQNYYDREVTPLIGSPSIQPSCGVIKRFSGLLHGSPKTTPSAPAASTETLTPTPERNELVYASIEVQATQGNLNSSAQDYRALYDYTAQNSDELDISAGDILAVILEGEDGWWTVERNGQRGFVPGSYLEKLDYKDDDDK
B6: E50ER: PST PIP clustered alanine substitution starting at E50 (protein)
chain: MMAQLQFRDAFWCRDFTAHTGYEVLLQRLLDGRKMCKDVEELLRQRAQAAAAYGKELVQIARKAGGQTEMNSLRTSFDSLKQQTENVGSAHIQLALALREELRSLEEFRERQKEQRKKYEAIMDRVQKSKLSLYKKTMESKKAYDQKCRDADDAEQAFERVSANGHQKQVEKSQNKAKQCKESATEAERVYRQNIEQLERARTEWEQEHRTTCEAFQLQEFDRLTILRNALWVHCNQLSMQCVKDDELYEEVRLTLEGCDVEGDINGFIQSKSTGREPPAPVPYQNYYDREVTPLIGSPSIQPSCGVIKRFSGLLHGSPKTTPSAPAASTETLTPTPERNELVYASIEVQATQGNLNSSAQDYRALYDYTAQNSDELDISAGDILAVILEGEDGWWTVERNGQRGFVPGSYLEKLDYKDDDDK
B7: R99EE: PST PIP clustered alanine substitution starting at R99 (protein)
chain: MMAQLQFRDAFWCRDFTAHTGYEVLLQRLLDGRKMCKDVEELLRQRAQAEERYGKELVQIARKAGGQTEMNSLRTSFDSLKQQTENVGSAHIQLALALAAALRSLEEFRERQKEQRKKYEAIMDRVQKSKLSLYKKTMESKKAYDQKCRDADDAEQAFERVSANGHQKQVEKSQNKAKQCKESATEAERVYRQNIEQLERARTEWEQEHRTTCEAFQLQEFDRLTILRNALWVHCNQLSMQCVKDDELYEEVRLTLEGCDVEGDINGFIQSKSTGREPPAPVPYQNYYDREVTPLIGSPSIQPSCGVIKRFSGLLHGSPKTTPSAPAASTETLTPTPERNELVYASIEVQATQGNLNSSAQDYRALYDYTAQNSDELDISAGDILAVILEGEDGWWTVERNGQRGFVPGSYLEKLDYKDDDDK

In this assay the target is T1, PTP HSCF. Put plainly: In vitro GST pull-down binding of PST PIP forms to PTP HSCF. The note with it: in vitro. The method, then: The binding was carried out according to the method of Wong and Johnson (Wong et al., J. Biol. Chem. 271(35):20981-20984 (1996)). Briefly, 1 μg of plasmid with either the PSTPIP protein or PTP HSCF under the control of the Sp6 promoter was in vitro transcribed/translated using the Promega™ TnT Rabbit Reticulocyte™ system. Samples were diluted in 50 mM HEPES, pH 7.2, 1% triton X 100, 10% glycerol, 100 mM NaCl, 5 mM EDTA and 2 μg/ml each of leupeptin, pepstatin, aprotinin, and PMSF. […] This was reacted for 1 hour at 4° C. and then the resin washed 6 times in HEPES/Triton binding buffer before SDS gel electrophoresis. The peptides were synthesized on an automated Milligen 9050 Peptide Synthesizer using standard solid phase chemistry with FMOC protected amino acids on a p-alkoxybenzyl alcohol resin. Dried peptides were re-suspended in the HEPES/Triton Binding buffer at a concentration of 10 mg/ml. Peptide inhibition was performed by adding the peptide first to the in vitro translation product and then the GST-fusion followed by the GSH-Sepharose. The binding/washing steps were as previously described. The peptides synthesized and the PTPs they were derived from were: • PXXP-HSCF: 432[…]451 (PTP HSCF) (SEQ ID NO:20), • PXXP-PEP: 782GFGNRFSKPKGPRNPPSAW800 (PTP PEP) (SEQ ID NO:21), • PXXP-PEST: 761[…]780 (PTP PEST) SEQ ID NO:22), • PXXP-CONTROL: 334[…]353 (PTP HSCF) (SEQ ID NO:23).
In vitro binding analyses between various PTP HSCF and PST PIP constructs were performed as previously described (Spencer et al, (1997), supra). Briefly, plasmids were transcribed and translated in vitro using the TnT Rabbit Reticulocyte Lysate System (Promega). Samples were diluted in 50 mM HEPES, pH 7.2, 1% triton X-100, 10% glycerol, 100 mM NaCl, and 2 μg/ml each of leupeptin, pepstatin, aprotinin and PMSF (lysis buffer). Samples were than reacted with GST fusion proteins at various concentrations, and the bound proteins were centrifuged using glutathione-sepharose beads and analyzed on SDS polyacrylamide gels. C-terminally-derived peptide inhibition studies were performed by incubating the GST fusion protein binding reactions in the presence of 10 μg/ml of the indicated peptides. Peptides were produced by FMOC-protected amino acids as previously described (Spencer et al, (1997), supra). In vivo interactions between various forms of PTP HSCF and PST PIP were also performed as previously described (Spencer et al, (1997), supra). Briefly, COS cells were transfected with various constructs, and after 48 hours, lysates were prepared and immunoprecipitated with antibodies to either the FLAG epitope contained at the C-terminus of PST PIP or an HA epitope contained at the N-terminus of PTP HSCF. The resultant blots were probed with anti-FLAG to detect PST PIP, anti-HA to detect PTP HSCF or anti-phosphotyrosine to detect levels of this modified amino acid in each protein.
For the molecule B1, the “binding of in vitro translated PST PIP forms to GST fusion of C-terminal 149 amino acids of PTP HSCF” value (shortened to “binding”) is “no effect on PTP HSCF binding was observed”. As to B2, the “binding” value was “either no or a minor change in the binding activity”. As to B3, the “binding” value is reported as “either no or a minor change in the binding activity”. Take B4: the “binding” value was “either no or a minor change in the binding activity”. Consider B5, for which the “binding” value was “either no or a minor change in the binding activity”. As for B6, the “binding” value is given as “either no or a minor change in the binding activity”. With B7, the “binding” value is on record as “either no or a minor change in the binding activity”.
